Laboratory results as given in US6541623.

Target: Interleukin-1 receptor on human fibroblasts (NHDF, normal human dermal fibroblasts) (human)
Assay: cell-based or functional assay

Sequence of Interleukin-1 receptor on human fibroblasts (NHDF, normal human dermal fibroblasts) (human) (P14778 18-569): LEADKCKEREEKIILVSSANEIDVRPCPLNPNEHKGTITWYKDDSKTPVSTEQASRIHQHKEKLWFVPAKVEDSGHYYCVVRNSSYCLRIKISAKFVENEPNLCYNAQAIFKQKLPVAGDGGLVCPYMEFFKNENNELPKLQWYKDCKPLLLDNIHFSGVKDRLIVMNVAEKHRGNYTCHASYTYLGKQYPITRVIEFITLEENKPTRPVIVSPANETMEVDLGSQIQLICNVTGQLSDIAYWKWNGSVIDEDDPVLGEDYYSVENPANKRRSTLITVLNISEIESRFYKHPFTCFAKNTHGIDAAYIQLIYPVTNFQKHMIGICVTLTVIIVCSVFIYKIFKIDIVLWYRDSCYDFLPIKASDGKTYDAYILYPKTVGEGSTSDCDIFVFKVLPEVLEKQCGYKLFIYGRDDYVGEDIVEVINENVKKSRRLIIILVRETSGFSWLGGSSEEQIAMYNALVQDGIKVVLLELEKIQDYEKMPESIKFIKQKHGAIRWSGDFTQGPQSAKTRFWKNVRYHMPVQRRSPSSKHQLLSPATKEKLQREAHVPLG

inhibition of IL-1β stimulated PGE2 production in CCD 1098 human fibroblast cells (PGE2 ELISA): 40 to 60 % inhibition
Substance: IL-1 Hy1 Receptor Antagonist, non-tagged / preparation not specified (from UniProt Q9UBH0 1-155) (ligand)
